The test system of series [1] is HeLa Kyoto. Briefly: solubility in G1/S (NP-40 vs SDS abundance) (log2 ratio); higher = more soluble. The settings on record: cell cycle stage: G1/S.
The subject of series [2] is HeLa Kyoto. Kind of series: melting temperature (median over replicates), in situ; higher = more thermally stable.
The test system of series [3] is HeLa Kyoto. Briefly: thermal stability score vs G1/S (z-score of summed log2 fold changes over temperatures); higher = more thermally stable than in G1/S.
The subject of series [4] is HeLa Kyoto. Kind of series: solubility change mitosis vs G1/S (difference of NP-40 vs SDS log2 ratios) (log2 ratio difference); higher = more soluble in mitosis.
The mark [5] stands for this setting: cell cycle stage: early G1 (4.5 h after nocodazole release).
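Wherever melting temperature (median over replicates), in situ is given: HeLa Kyoto cells synchronized by double thymidine or nocodazole block, proteins quantified by TMT10plex mass spectrometry, three independent biological replicates.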
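Wherever solubility change mitosis vs G1/S (difference of NP-40 vs SDS log2 ratios) is given: synchronized HeLa Kyoto cells (double thymidine block for G1/S, nocodazole release for mitosis), protein amounts in NP-40 versus SDS lysates quantified by mass spectrometry, three biological replicates.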
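Wherever solubility in G1/S (NP-40 vs SDS abundance) is given: HeLa Kyoto cells arrested at G1/S by double thymidine block, proteins quantified by TMT10plex mass spectrometry in mild NP-40 versus SDS extracts, three biological replicates.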
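Wherever thermal stability score vs G1/S (z-score of summed log2 fold changes over temperatures) is given: synchronized HeLa Kyoto cells, proteins quantified by TMT10plex mass spectrometry, three biological replicates, mitosis taken 0.5 h after nocodazole release, G1/S directly after double thymidine block.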

Regarding “MADTTPNGPQGAGAVQFMMTNKLDTAMWLSRLFTVYCSALFVLPLLGLHEAASFYQRALLANALTSALRLHQRLPHFQLSRAFLAQALLEDSCHYLLYSLIFVNSYPVTMSIFPVLLFSLLHAATYTKKVLDARGSNSLPLLRSVLDKLSANQQNILKFIACNEIFLMPATVFMLFSGQGSLLQPFIYYRFLTLRYSSRRNPYCRTLFNELRIVVEHIIMKPACPLFVRRLCLQSIAFISRLAPTVP [TMEM33]”, the “solubility in G1/S (log2)” value with HeLa Kyoto [1] came to 0.0522. The melting temperature was found to be 55 °C in the series with HeLa Kyoto [2] (cell cycle stage: G1/S) and 53.5 °C in the series with HeLa Kyoto [2] (cell cycle stage: mitosis). Besides, the values for the thermal stability score with HeLa Kyoto [3] (setting [5]) and in the series on HeLa Kyoto [3] (cell cycle stage: mitosis) were 2.25 and 2.45, respectively. The “solubility change mitosis (log2)” value with HeLa Kyoto [4] was -0.177.
On to “MAEAHQAVAFQFTVTPDGIDLRLSHEALRQIYLSGLHSWKKKFIRFKNGIITGVYPASPSSWLIVVVGVMTTMYAKIDPSLGIIAKINRTLETANCMSSQTKNVVSGVLFGTGLWVALIVTMRYSLKVLLSYHGWMFTEHGKMSRATKIWMGMVKIFSGRKPMLYSFQTSLPRLPVPAVKDTVNRYLQSVRPLMKEEDFKRMTALAQDFAVGLGPRLQWYLKLKSWWATNYVSDWWEEYIYLRGRGPLMVNSNYYAMDLLYILPTHIQAARAGNAIHAILLYRRKLDREEIKPIRLLGSTIPLCSAQWERMFNTSRIPGEETDTIQHMRDSKHIVVYHRGRYFKVWLYHDGRLLKPREMEQQMQRILDNTSEPQPGEARLAALTAGDRVPWARCRQAYFGRGKNKQSLDAVEKAAFFVTLDETEEGYRSEDPDTSMDSYAKSLLHGRCYDRWFDKSFTFVVFKNGKMGLNAEHSWADAPIVAHLWEYVMSIDSLQLGYAEDGHCKGDINPNIPYPTRLQWDIPGECQEVIETSLNTANLLANDVDFHSFPFVAFGKGIIKKCRTSPDAFVQLALQLAHYKDMGKFCLTYEASMTRLFREGRTETVRSCTTESCDFVRAMVDPAQTVEQRLKLFKLASEKHQHMYRLAMTGSGIDRHLFCLYVVSKYLAVESPFLKEVLSEPWRLSTSQTPQQQVELFDLENNPEYVSSGGGFGPVADDGYGVSYILVGENLINFHISSKFSCPETDSHRFGRHLKEAMTDIITLFGLSSNSKK [CPT1A]”, for which the “solubility in G1/S (log2)” value with HeLa Kyoto [1] is -0.177. For the same sequence, the melting temperature in the series with HeLa Kyoto [2] (cell cycle stage: G1/S) is 50 °C; with HeLa Kyoto [2] (cell cycle stage: mitosis), 50.1 °C. Moreover, the thermal stability score was 5.3 in the series with HeLa Kyoto [3] (setting [5]) and 4.57 with HeLa Kyoto [3] (cell cycle stage: mitosis). For the same sequence, the “solubility change mitosis (log2)” value in the series with HeLa Kyoto [4] was -0.0899.
With “MAEAPPVSGTFKFNTDAAEFIPQEKKNSGLNCGTQRRLDSNRIGRRNYSSPPPCHLSRQVPYDEISAVHQHSYHPSGSKPKSQQTSFQSSPCNKSPKSHGLQNQPWQKLRNEKHHIRVKKAQSLAEQTSDTAGLESSTRSESGTDLREHSPSESEKEVVGADPRGAKPKKATQFVYSYGRGPKVKGKLKCEWSNRTTPKPEDAGPESTKPVGVFHPDSSEASSRKGVLDGYGARRNEQRRYPQKRPPWEVEGARPRPGRNPPKQEGHRHTNAGHRNNMGPIPKDDLNERPAKSTCDSENLAVINKSSRRVDQEKCTVRRQDPQVVSPFSRGKQNHVLKNVETHTGSLIEQLTTEKYECMVCCELVRVTAPVWSCQSCYHVFHLNCIKKWARSPASQADGQSGWRCPACQNVSAHVPNTYTCFCGKVKNPEWSRNEIPHSCGEVCRKKQPGQDCPHSCNLLCHPGPCPPCPAFMTKTCECGRTRHTVRCGQAVSVHCSNPCENILNCGQHQCAELCHGGQCQPCQIILNQVCYCGSTSRDVLCGTDVGKSDGFGDFSCLKICGKDLKCGNHTCSQVCHPQPCQQCPRLPQLVRCCPCGQTPLSQLLELGSSSRKTCMDPVPSCGKVCGKPLPCGSLDFIHTCEKLCHEGDCGPCSRTSVISCRCSFRTKELPCTSLKSEDATFMCDKRCNKKRLCGRHKCNEICCVDKEHKCPLICGRKLRCGLHRCEEPCHRGNCQTCWQASFDELTCHCGASVIYPPVPCGTRPPECTQTCARVHECDHPVYHSCHSEEKCPPCTFLTQKWCMGKHEFRSNIPCHLVDISCGLPCSATLPCGMHKCQRLCHKGECLVDEPCKQPCTTPRADCGHPCMAPCHTSSPCPVTACKAKVELQCECGRRKEMVICSEASSTYQRIAAISMASKITDMQLGGSVEISKLITKKEVHQARLECDEECSALERKKRLAEAFHISEDSDPFNIRSSGSKFSDSLKEDARKDLKFVSDVEKEMETLVEAVNKGKNSKKSHSFPPMNRDHRRIIHDLAQVYGLESVSYDSEPKRNVVVTAIRGKSVCPPTTLTGVLEREMQARPPPPIPHHRHQSDKNPGSSNLQKITKEPIIDYFDVQD [NFX1]”, in the series on HeLa Kyoto [1], the “solubility in G1/S (log2)” value was -0.786. Moreover, the melting temperature in the series with HeLa Kyoto [2] (cell cycle stage: G1/S) came to 50.5 °C; in the series with HeLa Kyoto [2] (cell cycle stage: mitosis) it was 50.3 °C. For the same sequence, the thermal stability score was 1.02 in the series with HeLa Kyoto [3] (setting [5]) and 0.0215 in the series with HeLa Kyoto [3] (cell cycle stage: mitosis). Further, the “solubility change mitosis (log2)” value in the series with HeLa Kyoto [4] was found to be 0.35.
With “MAEARKRRELLPLIYHHLLRAGYVRAAREVKEQSGQKCFLAQPVTLLDIYTHWQQTSELGRKRKAEEDAALQAKKTRVSDPISTSESSEEEEEAEAETAKATPRLASTNSSVLGADLPSSMKEKAKAETEKAGKTGNSMPHPATGKTVANLLSGKSPRKSAEPSANTTLVSETEEEGSVPAFGAAAKPGMVSAGQADSSSEDTSSSSDETDVEGKPSVKPAQVKASSVSTKESPARKAAPAPGKVGDVTPQVKGGALPPAKRAKKPEEESESSEEGSESEEEAPAGTRSQVKASEKILQVRAASAPAKGTPGKGATPAPPGKAGAVASQTKAGKPEEDSESSSEESSDSEEETPAAKALLQAKASGKTSQVGAASAPAKESPRKGAAPAPPGKTGPAVAKAQAGKREEDSQSSSEESDSEEEAPAQAKPSGKAPQVRAASAPAKESPRKGAAPAPPRKTGPAAAQVQVGKQEEDSRSSSEESDSDREALAAMNAAQVKPLGKSPQVKPASTMGMGPLGKGAGPVPPGKVGPATPSAQVGKWEEDSESSSEESSDSSDGEVPTAVAPAQEKSLGNILQAKPTSSPAKGPPQKAGPVAVQVKAEKPMDNSESSEESSDSADSEEAPAAMTAAQAKPALKIPQTKACPKKTNTTASAKVAPVRVGTQAPRKAGTATSPAGSSPAVAGGTQRPAEDSSSSEESDSEEEKTGLAVTVGQAKSVGKGLQVKAASVPVKGSLGQGTAPVLPGKTGPTVTQVKAEKQEDSESSEEESDSEEAAASPAQVKTSVKKTQAKANPAAARAPSAKGTISAPGKVVTAAAQAKQRSPSKVKPPVRNPQNSTVLARGPASVPSVGKAVATAAQAQTGPEEDSGSSEEESDSEEEAETLAQVKPSGKTHQIRAALAPAKESPRKGAAPTPPGKTGPSAAQAGKQDDSGSSSEESDSDGEAPAAVTSAQVIKPPLIFVDPNRSPAGPAATPAQAQAASTPRKARASESTARSSSSESEDEDVIPATQCLTPGIRTNVVTMPTAHPRIAPKASMAGASSSKESSRISDGKKQEGPATQVSKKNPASLPLTQAALKVLAQKASEAQPPVARTQPSSGVDSAVGTLPATSPQSTSVQAKGTNKLRKPKLPEVQQATKAPESSDDSEDSSDSSSGSEEDGEGPQGAKSAHTLGPTPSRTETLVEETAAESSEDDVVAPSQSLLSGYMTPGLTPANSQASKATPKLDSSPSVSSTLAAKDDPDGKQEAKPQQAAGMLSPKTGGKEAASGTTPQKSRKPKKGAGNPQASTLALQSNITQCLLGQPWPLNEAQVQASVVKVLTELLEQERKKVVDTTKESSRKGWESRKRKLSGDQPAARTPRSKKKKKLGAGEGGEASVSPEKTSTTSKGKAKRDKASGDVKEKKGKGSLGSQGAKDEPEEELQKGMGTVEGGDQSNPKSKKEKKKSDKRKKDKEKKEKKKKAKKASTKDSESPSQKKKKKKKKTAEQTV [TCOF1]”, in the series on HeLa Kyoto [1], the “solubility in G1/S (log2)” value was -0.327. In addition, the results for the melting temperature in the series on HeLa Kyoto [2] (cell cycle stage: G1/S) and in the series with HeLa Kyoto [2] (cell cycle stage: mitosis) were 53.2 °C and 52.9 °C, respectively. The thermal stability score in the series on HeLa Kyoto [3] (setting [5]) is -3.49; with HeLa Kyoto [3] (cell cycle stage: mitosis), -1.37. For the same sequence, the “solubility change mitosis (log2)” value in the series with HeLa Kyoto [4] was 0.223.

Source of the values: the supplement of paper PMC5998384.
